Read-outs that look alike come from different tables or passages of the source.
What was measured:
[1] = target: StrAOMT, O-methyltransferase from Streptomyces avermitilis (Streptomyces avermitilis); assay: crystal structure
[2] = target: StrAOMT, O-methyltransferase from Streptomyces avermitilis (Streptomyces avermitilis); assay: crystal structure; remark: listed apart in the source
[3] = target: DesAOMT, O-methyltransferase from Desulfuromonas acetoxidans (Desulfuromonas acetoxidans); assay: crystal structure
[4] = target: DesAOMT, O-methyltransferase from Desulfuromonas acetoxidans (Desulfuromonas acetoxidans); assay: SEC

Substance | stoichiometry N [1] | stoichiometry N [2] | stoichiometry N [3] | stoichiometry N [4]
StrAOMT, O-methyltransferase from Streptomyces avermitilis (enzyme) | 2 | 2 | – | –
DesAOMT, O-methyltransferase from Desulfuromonas acetoxidans (enzyme) | – | – | 2 | 2

— article doi:10.1101/2023.01.28.526015
